Where two headings read alike, the source gives them in different places.

Data set [1] deals with T1, rLCRF-SBP (Chlamydomonas reinhardtii, UniProt A0A2K3E5K7 866-1032). Briefly: EMSA.
The target in data set [2] is T1, rLCRF-SBP. As to the kind of experiment: EMSA. This is another data set of the same source.

B1: mutated GTAC-consensus 30 bp (shuffled core) (dsDNA)
DNA 1: GTCGCCACTGCGAGATCCACTGAGAGATCG
DNA 2: CGATCTCTCAGTGGATCTCGCAGTGGCGAC
On to B1, for which, in the data set with rLCRF-SBP [1], the binding result was “no binding”.

B2: GTAC-consensus 30 bp (dsDNA)
DNA 1: GTCGCCGTACCGAGATCCGTACAGAGATCG
DNA 2: CGATCTCTGTACGGATCTCGGTACGGCGAC
Regarding B2, the binding result in the data set with rLCRF-SBP [2] is on record as “binds”.
